In the supplement of paper PMC9112550, “Optimization of the antimicrobial peptide Bac7 by deep mutational scanning” (BMC Biology, 2022):

Each sequence was assayed on Escherichia coli TOP10 (assay: shrunken log2 fold change of peptide-encoding DNA abundance (4.5 h post-induction vs induction); higher = less antimicrobial activity (less host growth inhibition)). Conditions: time post-induction: 4.5 h; library: site-saturation at positions 5, 18, 19, 20.
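Note: peptides expressed intracellularly from a pBAD plasmid library in pooled LB shake-flask culture, induced with 0.3% L-arabinose, DNA abundance read by NGS, three biological replicates, DESeq2 with apeglm shrinkage.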

Row | Sequence | shrunken log2 fold change
1 | RRIRHRPPRLPRPRPRPANGPRP | -0.0837
2 | RRIRHRPPRLPRPRPRPAPRPRP | 0.749
3 | RRIRHRPPRLPRPRPRPAPTPRP | 0.294
4 | RRIRHRPPRLPRPRPRPAQCPRP | 0.101
5 | RRIRHRPPRLPRPRPRPATEPRP | 0.29
6 | RRIRHRPPRLPRPRPRPATIPRP | -0.281
7 | RRIRHRPPRLPRPRPRPATTPRP | -0.101
8 | RRIRHRPPRLPRPRPRPCDRPRP | -0.239
9 | RRIRHRPPRLPRPRPRPCEQPRP | -0.0166
10 | RRIRHRPPRLPRPRPRPCGQPRP | 0.015
11 | RRIRHRPPRLPRPRPRPCHPPRP | -0.01
12 | RRIRHRPPRLPRPRPRPCHRPRP | -0.126
13 | RRIRHRPPRLPRPRPRPCHSPRP | -0.19
14 | RRIRHRPPRLPRPRPRPCLIPRP | -0.11
15 | RRIRHRPPRLPRPRPRPCMTPRP | 0.0183
16 | RRIRHRPPRLPRPRPRPCNIPRP | -0.236
17 | RRIRHRPPRLPRPRPRPCNQPRP | -0.185
18 | RRIRHRPPRLPRPRPRPCPTPRP | -0.258
19 | RRIRHRPPRLPRPRPRPCQQPRP | -0.0541
20 | RRIRHRPPRLPRPRPRPCRYPRP | -0.0657
21 | RRIRHRPPRLPRPRPRPCSEPRP | 0.0248
22 | RRIRHRPPRLPRPRPRPCSRPRP | -0.231
23 | RRIRHRPPRLPRPRPRPCTAPRP | 0.0655
24 | RRIRHRPPRLPRPRPRPCTNPRP | -0.249
25 | RRIRHRPPRLPRPRPRPCTTPRP | -1.7

Row | Sequence | shrunken log2 fold change
26 | RRIRHRPPRLPRPRPRPCVQPRP | -0.131
27 | RRIRHRPPRLPRPRPRPCWRPRP | 0.0476
28 | RRIRHRPPRLPRPRPRPCYMPRP | -0.494
29 | RRIRHRPPRLPRPRPRPDADPRP | 0.0435
30 | RRIRHRPPRLPRPRPRPDAYPRP | 0.027
31 | RRIRHRPPRLPRPRPRPDDAPRP | 0.0602
32 | RRIRHRPPRLPRPRPRPDDRPRP | -0.144
33 | RRIRHRPPRLPRPRPRPDEMPRP | 0.0307
34 | RRIRHRPPRLPRPRPRPDHNPRP | -0.956
35 | RRIRHRPPRLPRPRPRPDKQPRP | 0.0409
36 | RRIRHRPPRLPRPRPRPDLMPRP | -0.175
37 | RRIRHRPPRLPRPRPRPDMDPRP | 0.0205
38 | RRIRHRPPRLPRPRPRPDNFPRP | -0.0184
39 | RRIRHRPPRLPRPRPRPDNLPRP | 0.0139
40 | RRIRHRPPRLPRPRPRPDPLPRP | -0.106
41 | RRIRHRPPRLPRPRPRPDQIPRP | -0.0166
42 | RRIRHRPPRLPRPRPRPDRCPRP | -0.205
43 | RRIRHRPPRLPRPRPRPDSQPRP | -0.194
44 | RRIRHRPPRLPRPRPRPDTAPRP | 0.0194
45 | RRIRHRPPRLPRPRPRPDTTPRP | -0.226
46 | RRIRHRPPRLPRPRPRPDWTPRP | -0.0689
47 | RRIRHRPPRLPRPRPRPDYIPRP | -0.0135
48 | RRIRHRPPRLPRPRPRPEAEPRP | 0.409
49 | RRIRHRPPRLPRPRPRPEAPPRP | 0.641
50 | RRIRHRPPRLPRPRPRPECHPRP | -0.303

Row | Sequence | shrunken log2 fold change
51 | RRIRHRPPRLPRPRPRPEDHPRP | 0.0753
52 | RRIRHRPPRLPRPRPRPEEPPRP | 0.0179
53 | RRIRHRPPRLPRPRPRPEIEPRP | -0.0966
54 | RRIRHRPPRLPRPRPRPEIHPRP | 0.0389
55 | RRIRHRPPRLPRPRPRPEKAPRP | -0.0238
56 | RRIRHRPPRLPRPRPRPEKVPRP | -0.017
57 | RRIRHRPPRLPRPRPRPELHPRP | 0.00184
58 | RRIRHRPPRLPRPRPRPEMEPRP | -0.108
59 | RRIRHRPPRLPRPRPRPEMHPRP | 0.0592
60 | RRIRHRPPRLPRPRPRPEMQPRP | -0.000952
61 | RRIRHRPPRLPRPRPRPENFPRP | -0.0249
62 | RRIRHRPPRLPRPRPRPENYPRP | -0.327
63 | RRIRHRPPRLPRPRPRPEPGPRP | -0.044
64 | RRIRHRPPRLPRPRPRPEPHPRP | 0.113
65 | RRIRHRPPRLPRPRPRPEPIPRP | 0.021
66 | RRIRHRPPRLPRPRPRPEPMPRP | 0.134
67 | RRIRHRPPRLPRPRPRPERHPRP | 0.0281
68 | RRIRHRPPRLPRPRPRPESAPRP | 0.368
69 | RRIRHRPPRLPRPRPRPESCPRP | 0.0512
70 | RRIRHRPPRLPRPRPRPESVPRP | 0.0222
71 | RRIRHRPPRLPRPRPRPESWPRP | -0.00647
72 | RRIRHRPPRLPRPRPRPETRPRP | 0.013
73 | RRIRHRPPRLPRPRPRPEVGPRP | 0.0518
74 | RRIRHRPPRLPRPRPRPEVLPRP | -0.0421
75 | RRIRHRPPRLPRPRPRPEVSPRP | -0.0122
